Data on 17 molecules can be found in patent US20260210971A1 (Pfizer, published 2026).

Residue numbers refer to the chain shown, from its start.

Sequences and labels used below:
T1: recombinant soluble rat TL1A (rat, UniProt Q8K3Y7 76-252)
T1 construct: also called rat rsTL1A
T1 sequence: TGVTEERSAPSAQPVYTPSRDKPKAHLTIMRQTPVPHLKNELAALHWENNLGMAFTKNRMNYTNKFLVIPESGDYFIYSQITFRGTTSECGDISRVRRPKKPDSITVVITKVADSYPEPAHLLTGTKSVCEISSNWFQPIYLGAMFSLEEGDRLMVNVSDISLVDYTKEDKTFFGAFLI

T2: recombinant soluble murine TL1A (mouse, UniProt Q5UBV8 75-252)
T2 construct: also called murine rsTL1A; mouse TL1A
T2 chain: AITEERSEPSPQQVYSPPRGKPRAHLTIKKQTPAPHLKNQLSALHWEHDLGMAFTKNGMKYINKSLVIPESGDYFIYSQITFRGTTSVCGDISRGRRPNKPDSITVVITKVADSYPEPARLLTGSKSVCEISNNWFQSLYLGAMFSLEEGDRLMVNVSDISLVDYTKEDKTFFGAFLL

T3: recombinant soluble cynomolgus monkey TL1A (cynomolgus monkey, UniProt O95150 72-251 (human entry))
T3 construct: also called cyno rsTL1A; cyno TL1A
T3 chain: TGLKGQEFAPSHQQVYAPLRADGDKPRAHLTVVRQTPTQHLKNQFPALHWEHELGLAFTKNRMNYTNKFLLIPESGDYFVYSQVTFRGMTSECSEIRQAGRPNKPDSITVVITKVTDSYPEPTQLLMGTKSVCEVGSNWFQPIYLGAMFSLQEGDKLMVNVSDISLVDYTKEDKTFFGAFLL

T4: recombinant soluble human TL1A (human, UniProt O95150 71-251)
T4 construct: Homotrimer, expressed in HEK293 and purified over HitrapNTA; no tag is described; Used biotinylated in the HTRF assay and in flow cytometry; also called rsTL1A; hTL1A
T4 sequence: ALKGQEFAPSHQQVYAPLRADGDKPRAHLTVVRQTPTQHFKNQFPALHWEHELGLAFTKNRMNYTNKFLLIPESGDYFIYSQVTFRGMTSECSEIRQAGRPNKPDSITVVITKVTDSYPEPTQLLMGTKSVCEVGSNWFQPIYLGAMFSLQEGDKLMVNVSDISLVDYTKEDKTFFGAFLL

B1: 1D1 1.32 (antibody, human IgG1, kappa, V domains shown)
VH: QVQLVQSGAEVKKPGASVKVSCKASGYDFTYYGISWVRQAPGQGLEWMGWISTYNGGTHYARMLQGRVTMTTDTSTRTAYMELRSLRSDDTAVYYCARENYYGSGAYRGGMDAWGQGTTVTVSS
VL: EIVLTQSPATLSLSPGERATLSCRASQSVSSYLAWYQQKPGQAPRLLIYDASNRATGIPARFSGSGSGTDFTLTISSLEPEDFAVYYCQQRSNWPWTFGQGTKVEIKR
notes: Expressed as IgG1
B2: 1D1 1.34 (antibody, human IgG1, kappa, V domains shown)
VH: B1 VH with G57K, L64H
VL: B1 VL
notes: Expressed as IgG1
B3: 1D1 1.30 (antibody, human IgG1, kappa, V domains shown)
VH: B1 VH with G57V, A106S, A113V
VL: B1 VL
notes: Expressed as IgG1; also called 1D1 1.30-hIgG1-3m
B4: 1D1 1.28 (antibody, human IgG1, kappa, V domains shown)
VH: B1 VH with G57N, T58K, A106S, A113V
VL: B1 VL
notes: Expressed as IgG1; also called 1D1 1.28-hIgG1-3m
B5: 1D1 1.33 (antibody, human IgG1, kappa, V domains shown)
VH: B1 VH with G57V
VL: B1 VL
notes: Expressed as IgG1; also called 1D1 1.33-hIgG1-3m
B6: 1D1 1.29 (antibody, human IgG1, kappa, V domains shown)
VH: B1 VH with A106S, A113V
VL: B1 VL
notes: Expressed as IgG1
B7: 1D1 D18 (antibody, V domains shown)
VH: B1 VH with D28S, G57N, A106S, A113V
VL: B1 VL
notes: IgG with triple mutant Fc as for 1D1 D37
B8: 1D1 DH9 (antibody, V domains shown)
VH: B1 VH with D28S, T53P, G57K, A106S, A113V
VL: B1 VL
notes: as for B7
B9: 1D1 D31 (antibody, V domains shown)
VH: B1 VH with D28S, G57N, T58K, A106S, A113V
VL: B1 VL
notes: as for B7
B10: 1D1 D5 (antibody, V domains shown)
VH: B1 VH with D28S, G57N, H59N, Y107F, A113G
VL: B1 VL
notes: as for B7
B11: 1D1 D29 (antibody, V domains shown)
VH: B1 VH with D28S, T53S, G57N, A106S, A113V
VL: B1 VL
notes: as for B7
B12: 1D1 DH8 (antibody, V domains shown)
VH: B1 VH with D28S, T53A, G57N, A106S, A113V
VL: B1 VL
notes: as for B7
B13: 1D1 D28 (antibody, V domains shown)
VH: B1 VH with D28S, G57K, L64H, A106S, A113V
VL: B1 VL
notes: as for B7
B14: 1D1 D21 (antibody, V domains shown)
VH: B1 VH with D28S, G57K, A106S, A113V
VL: B1 VL
notes: as for B7
B15: 1D1 DH10 (antibody, V domains shown)
VH: B1 VH with D28S, G57N, H59N, A113V
VL: B1 VL
notes: as for B7
B16: 1D1 D25 (antibody, V domains shown)
VH: B1 VH with D28S, G57A, A106S, A113V
VL: B1 VL
notes: as for B7
B17: 1D1 Fab (Fab, V domains shown)
VH: B1 VH with D28S, G57N, H59N, A106S, A113V
VL: B1 VL
notes: Made from 1D1 IgG by papain; also called Fab of 1D1

The first test deals with T1, recombinant soluble rat TL1A. The experiment in a line: SPR, IgG captured on anti-hIgG, TL1A injected.
Excerpt: (§1) The antibodies were captured via directly immobilized anti-human IgG (GE Healthcare) onto a carboxymethylated dextran sensor chip surface (CM5) using a Biacore T100 or T200 instrument. Anti-human IgG was immobilized through amine coupling to densities of approximately 4,000-13,000 response units (RU). […] At the end of each cycle, the entire anti-hIgG surface was regenerated by a 30-second pulse of 3M MgCl₂ followed by two consecutive 15-second pulses of PBS-NET. […] All injections were performed at 25° C. at a collection rate of 10 Hz. All sensorgrams were double referenced by using both a control surface and buffer injections. Rate constants were determined by fitting the data to a 1:1 model in Biacore T100, T200 evaluation software v1.0, or BIAevaluation software v4.1.1 and the equation KD=Kd/kₐ.
(§2) At the highest cytokine concentrations, the dissociation phase was sometimes extended to 60 minutes to achieve at least a 5% decrease in binding signal.
In the case of B1, the Kd – broadly, the equilibrium constant for the complex coming apart – stood at 5020 pM; the koff (commonly the rate constant with which the complex falls apart) worked out at 0.0029 s⁻¹; the kon (commonly a measure of how fast the partners come together) is 580000 M⁻¹ s⁻¹; the t1/2 stood at 3.95 min.

Take B2: the Kd is 5920 pM, the koff is 0.0024 s⁻¹, the kon is 410000 M⁻¹ s⁻¹ and the t1/2 is 4.77 min.

On to B3, for which the Kd was 41900 pM, the koff stood at 0.0098 s⁻¹, the kon worked out at 240000 M⁻¹ s⁻¹ and the t1/2 is 1.18 min.

Another test deals with T2, recombinant soluble murine TL1A. Kind of test: SPR, IgG captured on anti-hIgG, TL1A injected. A general note: SPR reads the build-up and loss of mass on a sensor chip optically.
Excerpt: as §1, §2
For the molecule B4, the Kd is about 1530 pM, the koff was 0.00032 s⁻¹, the kon stood at 210000 M⁻¹ s⁻¹ and the t1/2 is 36.1 min.

For B1, the Kd came to 906 pM, the koff was 0.00023 s⁻¹, the kon is 260000 M⁻¹ s⁻¹ and the t1/2 is 49.5 min.

Turning to B5, the dissociation constant Kd turned out to be 1910 pM, the koff came to 0.00029 s⁻¹, the kon was 160000 M⁻¹ s⁻¹ and the t1/2 was 39 min.

Regarding B2, the Kd was 1110 pM, the koff turned out to be 0.00028 s⁻¹, the kon came out at 250000 M⁻¹ s⁻¹ and the t1/2 stood at 41.8 min.

On to B6, for which the Kd worked out at 2860 pM, the koff turned out to be 0.0007 s⁻¹, the kon worked out at 260000 M⁻¹ s⁻¹ and the t1/2 was found to be 15.8 min.

With B3, the Kd came out at 5250 pM, the koff is 0.0007 s⁻¹, the kon is 140000 M⁻¹ s⁻¹ and the t1/2 amounted to 17.9 min.

The target of another test is T3, recombinant soluble cynomolgus monkey …. Kind of test: SPR, IgG captured on anti-hIgG, TL1A injected.
For the molecule B4, the Kd worked out at 144 pM, the koff came out at 5.4e-05 s⁻¹, the kon was 380000 M⁻¹ s⁻¹ and the t1/2 was 215 min.

As to B1, the Kd is 66 pM, the koff came out at 2.9e-05 s⁻¹, the kon is 460000 M⁻¹ s⁻¹ and the t1/2 worked out at 398 min.

In the case of B5, the Kd was 107 pM, the koff came to 3.7e-05 s⁻¹, the kon was 360000 M⁻¹ s⁻¹ and the t1/2 came out at 309 min.

For B2, the Kd is 83 pM, the koff is 3.6e-05 s⁻¹, the kon worked out at 440000 M⁻¹ s⁻¹ and the t1/2 amounted to 323 min.

B6: the Kd came to 92 pM, the off-rate (koff) stood at 4.5e-05 s⁻¹, the kon amounted to 490000 M⁻¹ s⁻¹ and the t1/2 was 259 min.

Regarding B3, the Kd was 142 pM, the koff was found to be 6e-05 s⁻¹, the kon is 410000 M⁻¹ s⁻¹ and the t1/2 was found to be 199 min.

The next test addresses T4, recombinant soluble human TL1A. The experiment in a line: SPR, IgG captured on anti-hIgG, TL1A injected.
Description: Biacore analysis was performed using T-200 biosensor, series S CM5 chips and approximately 4000 RU (response units) of an anti-human IgG (GE Healthcare), immobilized in 10 mM sodium acetate immobilization buffer at pH 5.0. Assay conditions were established to minimize the influence of mass transfer, avidity, and rebinding events, as described below. A blank immobilization was carried out on a separate flow cell for reference subtraction. The purified IgGs were diluted in running buffer (PBS, 300 mM sodium chloride, 3.2 mM ethylenediaminetetraacetic acid, 0.01% Tween20) and low levels (<30 RU) captured using a flow rate of 100 μl/min for 2 min, to reduce possible rebinding by the trimeric TL1A. […] Reference-subtracted sensorgrams for each concentration were analyzed using Biacore T-200 evaluation software (v1.0).
For the molecule B7, the Kd is 662 pM, the koff amounted to 0.000473 s⁻¹ and the kon came out at 717000 M⁻¹ s⁻¹.

With B8, the Kd turned out to be 840 pM, the koff came out at 0.000866 s⁻¹ and the kon worked out at 1.04e+06 M⁻¹ s⁻¹.

As to B9, the Kd is 518 pM, the koff amounted to 0.00042 s⁻¹ and the kon was 822000 M⁻¹ s⁻¹.

For B10, the Kd was 625 pM, the koff was found to be 0.000478 s⁻¹ and the kon worked out at 776000 M⁻¹ s⁻¹.

On to B11, for which the Kd worked out at 705 pM, the koff turned out to be 0.000712 s⁻¹ and the kon came out at 1.01e+06 M⁻¹ s⁻¹.

For B12, the Kd was 924 pM, the koff stood at 0.000896 s⁻¹ and the kon was determined as 977000 M⁻¹ s⁻¹.

On to B13, for which the Kd amounted to 527 pM, the koff amounted to 0.000568 s⁻¹ and the kon worked out at 1.09e+06 M⁻¹ s⁻¹.

For B14, the Kd was 709 pM, the koff came out at 0.00052 s⁻¹ and the kon is 745000 M⁻¹ s⁻¹.

Turning to B15, the Kd was 588 pM, the koff amounted to 0.0005 s⁻¹ and the kon came out at 853000 M⁻¹ s⁻¹.

For B16, the Kd was 453 pM, the koff was 0.000387 s⁻¹ and the kon came to 868000 M⁻¹ s⁻¹.

For another test the target is unchanged. Kind of test: SPR, IgG captured on anti-hIgG, TL1A injected; off rate too slow to measure.
In the case of B4, the Kd is under 100 pM.

For B1, the Kd was under 100 pM.

B5: the Kd was under 100 pM.

With B2, the Kd was under 100 pM.

In the case of B6, the Kd was under 100 pM.

For the molecule B3, the Kd was under 100 pM.

Another test shares this target. Kind of test: cell-based or functional assay.
Turning to B4, the “Caspase Assay, average IC50” value was 96.2 pM and the “NFkB Assay, average IC50” value turned out to be 189 pM.

On to B1, for which the “Caspase Assay, average IC50” value was 61.5 pM and the “NFkB Assay, average IC50” value turned out to be 180 pM.

In the case of B5, the “Caspase Assay, average IC50” value worked out at 146 pM and the “NFkB Assay, average IC50” value was determined as 200 pM.

Take B2: the “Caspase Assay, average IC50” value came out at 62.7 pM and the “NFkB Assay, average IC50” value turned out to be 182 pM.

For the molecule B6, the “Caspase Assay, average IC50” value was determined as 85 pM and the “NFkB Assay, average IC50” value is 281 pM.

As to B3, the “Caspase Assay, average IC50” value was 103 pM and the “NFkB Assay, average IC50” value came to 370 pM.

For another test the target is unchanged. The experiment in a line: KinExA, equilibrium in solution.
Description: This assay involves pre-incubating antibody: antigen mixtures in solution long enough to reach equilibrium before measuring the level of unbound antibody using a solid phase component. […] Beads were blocked for 1 hour with PBS plus 10 mg/ml bovine serum albumin (bovine serum albumin, Sigma) at room temperature before being diluted up to a total of 27 ml in PBS. […] For each titration series, a buffer sample and a sample of antibody alone were included. Each antibody: TL1A mixture was tumbled at room temperature for at least six hours to reach equilibrium and then each mixture was injected over the solid phase of TL1A-coated beads in the instrument flow cell. […] Beads were replenished between each sample. Binding signals of detected free antibody were converted to percentage of free, unbound antibody as measured by the antibody only sample and plotted versus each concentration of TL1A. For each antibody, the KD and ABC controlled curves were fit simultaneously using n-Curve Analysis software v3.1.4 to fit the curves to the ‘affinity, unknown ligand’ model and measure an equilibrium KD.
Solution-based kinetic exclusion assays (KinExA) were carried out as an orthogonal technique to measure equilibrium KD values.
In the case of B4, the Kd was determined as 2.52 pM.

With B17, the Kd was found to be 3000 pM.

B1: the equilibrium dissociation constant (Kd) came to 6.15 pM.

As to B5, the Kd was 10.6 pM.

On to B2, for which the Kd was 1.16 pM.

Regarding B6, the Kd came out at 19.4 pM.

As to B3, the Kd was 6.8 pM.
